From patent US20240270826A1 (NATIONAL RESEARCH COUNCIL OF CANADA, published 2024)

B1: NRCoV2-05 VHH (VHH)
VHH: EVKLVQSGGGLVQPGGSLRLSCAASGFIFSNYAMNWVRQAPGKGLEWVSGINSGGGDTRYADSVKGRFTVSRDNAKNTLYLQMNSLKPEDTGVYYCSKGPVSSYYGSGYDYRGQGTQVTVSS
B2: NRCoV2-14 VHH (VHH)
VHH: EVQLVSSGGGLVQAGGSLRLSCEASGTTFSHYAVGWYRQAPGKQREWVASISVFGSTTYGGSVAGRFTISRDNDKNTVDLQMNSLKPEDTAVYYCHAVNADIGGDYWGQGTQVTVSS
B3: NRCoV2-1d VHH (VHH)
VHH: EVQLVESGGGSVQPGGSLRLSCAASGSTLDYYAIGWFRQAPGKEREWVSSVSSSDGNTLYADSVKGRFTISRDNAKNTVYLQMNSLKAEDTAVYVCAADYSMRPFAVGRWHRDYEYWGQGTQVTVSS
B4: NRCoV2-15 VHH (VHH)
VHH: EVQLVSSGGGLVEAGGSLRLSCIASGSTSGRNTMGWFRQAPGKQREWVAIVSTSGATNYAGSVKGRFTLSRDNAKNAVYLQMNNLKPEDTAVYYCYAAYGGGGDYWGQGTQVTVSS
B5: NRCoV2-06 VHH (VHH)
VHH: EVQLVQSGGGLVQAGESLRLSCAASVSTFSSYAMGWYRQAPGKQRELVASIGFVGATYYIDSVKGRFTISRDNAKKTAYLQMNDLKPDDTAVYYCNARHYGGSEYWGQGTQVTVSS
B6: NRCoV2-SR13 VHH (VHH)
VHH: EVQLVESGGGLVTTGGSLRLSCATSGSRFGSKHMAWYRQAPGKQRDLVAAISSGGSTHYGSSVKGRFTISRDNAKSTVYLQMNSLNPEDTAVFYCNMGGWDYRSNTYIPGSRSDYWGQGTQVTVSS
B7: NRCoV2-18 VHH (VHH)
VHH: EVQLVESGGGLVQAGGSLRLSCVASGITISGYNMAWWRQTRGKQTERVAFINSGGSTTYSDSVKGRFTISRDNGKNTAYLQMNSLNAEDTADYFCSLHTSHDYWGQGTQVTVSS
B8: NRCoV2-04 VHH (VHH)
VHH: AVQLVDSGGGLVQPGGSLRLSCAASGSPFSNVVMAWYRQAPGKQRERVAFISGGGIADYIMSVKGRFTISRDNAKNTVYLQMNSLKPEDTAVYYCWSSYESTWGQGTQVTVSS
B9: NRCoV2-17 VHH (VHH)
VHH: EVQLQQSGGGLVQTGGSLRLSCAAAGSPFSQLAMSWYRQISGKERAWVASISPTGNRSYSKIAKGRFTISRDNAKNTVTLQMTSLKPEDTAAYICQAANVNGGDYWGQGTQVTVSS
B10: NRCoV2-03 VHH (VHH)
VHH: EVQLVSSGGGLVQAGGSLRLSCTASGITFSYYAMGWYRQAPGQPRELVASMSNMDSTIYADSVKGRFTISRDNAKTTIYLQMNNLKPEDTAVYFCNIYGPTYSTRRNEYWGQGTQVTVSS
B11: NRCoV2-11 VHH (VHH)
VHH: EVQLVSSGGGLVQPGGSLRLSCAASGSSLDSYSVSWFRQAPGKEREWISFISRYYSSTYYTDSVKGRFTTSRDGDQKTVHLQMNSLKPEDTAVYYCAARSRDFSSPFSATDTYTSWGQGTQVTVSS
B12: NRCoV2-10 VHH (VHH)
VHH: QLQLQESGGGLVQPGGSLTLSCAASGNTFSRSNMHWYRQAPGAQREWVAAISSRGISTYAYSAKGRFTISRDNAKNTVSLQMNSLKPEDTAVYYCYAADDLGDYWGQGTQVTVSS
B13: NRCoV2-SR16 VHH (VHH)
VHH: QVQLVQSAGGLVQAGGSLRLSCVVSGTTFSRYHMGWHRQAPGKQRDFVAGISTSGAVTYADSAKGRFTISRDNAKNTVYLEMNSLKLEDTALYYCNTGGWDYRSSTFIMGLNWGQGTQVTVSS
B14: NRCoV2-1d VHH-Fc (Fc fusion)
chain: B3 VHH
notes: bivalent VHH-Fc
B15: NRCoV2-18 VHH-Fc (Fc fusion)
chain: B7 VHH
notes: bivalent VHH-Fc
B16: NRCoV2-11 VHH-Fc (Fc fusion)
chain: B11 VHH
notes: bivalent VHH-Fc
B17: NRCoV2-MRed04 VHH-Fc (Fc fusion)
chain: EVQLVESGGGLVQPGRSLRLSCAASGNSFSISTMGWFRQAPGKERELVASIWSDTTTSYADSVKGRFTISTDNTRTKVYLQMSSLNPEDTAVYYCAADRGFVVRGQYDYWGQGTQVTVSS
notes: bivalent VHH-Fc
B18: NRCoV2-20 VHH-Fc (Fc fusion)
chain: EVQLQQSGGGLVQPGGSLRLSCAASGRTFSNYVVGWFRQAPQAPGKDHEFVAVISGSDTETYYADSVKGRFTISRDNAKNTVYLQMNSLKPEDTAVYYCAADRGMSYYYTRATEYYYWGQGTQVTVSS
notes: bivalent VHH-Fc
B19: NRCoV2-07 VHH-Fc (Fc fusion)
chain: QVQLVQSGGGLVQPGGSLRLSCAASGVTLDYYAIGWFRQAPGKEREAVSCISSNGRRNHYVASVRGRFTISRDNAKSTVYLQMNSLKPEDTAVYYCAAVQDVHGDNYYCTSPNEYNVWGQGTQVTVSS
notes: bivalent VHH-Fc
B20: NRCoV2-SR02 VHH-Fc (Fc fusion)
chain: EVQLVDSGGGLVQAGGSLRLSCTASEFTLNYYSIGWFRQSPGKEREGVSCIRYSGGGIDYADSVKGRFTISRDNAKNTVYLTMNSLKPEDTAVYYCAADRLYSRACPTAGGRNYWGQGTQVTVSS
notes: bivalent VHH-Fc
B21: NRCoV2-SR13 VHH-Fc (Fc fusion)
chain: B6 VHH
notes: bivalent VHH-Fc
B22: NRCoV2-SR01 VHH-Fc (Fc fusion)
chain: EVQLVQSGGGSVQAGGSLRLSCVASGFTFDNYAIGWFRQAPGKEREGVSCISGNGGVTIYADSVKGRFTISRDNAKNLVYLQMNSLKPEDTAVYYCAATGIRSTWSVYGCSRLAGPYDYWGQGTQVTVSS
notes: bivalent VHH-Fc
B23: NRCoV2-14 VHH (VHH)
VHH: B2 VHH
B24: NRCoV2-15 VHH (VHH)
VHH: B4 VHH
B25: NRCoV2-10 VHH (VHH)
VHH: B12 VHH

Biological target: Human SARS-CoV-2_Wuhan S (SmT1) (SARS-CoV-2 (Wuhan), UniProt P0DTC2 14-1208)
Test: tandem SPR, immobilized S, orientation 1: VHH alone

Row | Binder | End 1st inj (RU)
1 | B1 | 36.9
2 | B2 | 26.9
3 | B3 | 26.3
4 | B4 | 10.1
5 | B5 | 38.5
6 | B6 | 36.9
7 | B7 | 12.6
8 | B8 | 41.4
9 | B9 | 16.7
10 | B10 | 18.1
11 | B11 | 21.8
12 | B12 | 9.6
13 | B13 | 37.4

Biological target: SARS-CoV-2 S1-NTD (aa16-305) (SARS-CoV-2 Wuhan, UniProt P0DTC2 16-305)
Test: ELISA

Row | Binder | binding result
14 | B14 | no binding (tested: 13 nM)
15 | B15 | no binding (tested: 13 nM)
16 | B16 | no binding (tested: 13 nM)
17 | B17 | no binding (tested: 13 nM)
18 | B18 | no binding (tested: 13 nM)
19 | B19 | no binding (tested: 13 nM)

Biological target: T1, SARS-CoV-2 S2 (aa686-1208) (Wuhan) (SARS-CoV-2 Wuhan, UniProt P0DTC2 686-1208)
T1 construct: NRC; FLAG, 6xHis tags
Test: ELISA

Row | Binder | binding result
20 | B20 | no binding (tested: 13 nM)
21 | B14 | no binding (tested: 13 nM)
22 | B21 | no binding (tested: 13 nM)
23 | B22 | no binding (tested: 13 nM)
24 | B15 | no binding (tested: 13 nM)
25 | B16 | no binding (tested: 13 nM)
26 | B17 | no binding (tested: 13 nM)
27 | B18 | no binding (tested: 13 nM)
28 | B19 | no binding (tested: 13 nM)

Biological target: T2, SARS-CoV-2 S on CHO-S cells (SARS-CoV-2, UniProt P0DTC2 14-1273)
T2 construct: whole, on cells
Test: flow cytometry, CHO-S cells

Row | Binder | Bmax | EC50 [nM]
29 | B20 | 14400 | 1.2
30 | B14 | 13800 | 1.1
31 | B21 | 17800 | 7
32 | B22 | 15400 | 6.6
33 | B15 | 18300 | 0.9
34 | B16 | 18200 | 4.3
35 | B17 | 14900 | 4.2
36 | B18 | 12100 | 0.7
37 | B19 | 10600 | 1.1

Biological target: SARS-CoV-2 S1-RBD fused to human Fc (S1-RBD-Fc) (SARS-CoV-2 Wuhan; human)
Test: SPR, antigen on chip

Row | Binder | Kd [nM] | koff [s⁻¹] | kon [M⁻¹ s⁻¹]
38 | B23 | 3.61 | 0.000944 | 261000
39 | B24 | 0.342 | 0.000233 | 682000
40 | B25 | 0.266 | 9.32e-05 | 351000

Biological target: T3, SARS-CoV-2 S1 (aa16-685) (Wuhan) (SARS-CoV-2 Wuhan, UniProt P0DTC2 16-685)
T3 construct: NRC; FLAG, 6xHis tags
Test: SPR, antigen on chip

Row | Binder | Kd [nM] | koff [s⁻¹] | kon [M⁻¹ s⁻¹]
41 | B23 | 3.49 | 0.00112 | 319000
42 | B24 | 0.333 | 0.000225 | 675000
43 | B25 | 0.213 | 9.54e-05 | 448000

Biological target: T1, SARS-CoV-2 S2 (aa686-1208) (Wuhan)
Test: SPR, antigen on chip

Row | Binder | binding result
44 | B23 | no binding
45 | B24 | no binding
46 | B25 | no binding

Biological target: T4, SARS-CoV-2 spike trimer S (Wuhan, SmT1) (SARS-CoV-2 Wuhan)
T4 construct: extracellular domain
Test: SPR, antigen on chip

Row | Binder | Kd [nM] | koff [s⁻¹] | kon [M⁻¹ s⁻¹]
47 | B23 | 3.1 | 0.00164 | 528000
48 | B24 | 0.313 | 0.000221 | 706000
49 | B25 | 0.192 | 9.27e-05 | 483000
